This series relates to His-PTB (polypyrimidine tract-binding protein, pETPTB), P26599-1. The series is described as follows: EMSA.

In the case of “GGGCCAGACACUGAUUAUAUGGUUCAUAUGGGUAAUUACCUUCCCUAGGCUAAGGACUAACUGGUAUAUACCAUAAUUAAA [SHFV 3'(+)NCR RNA]”, the Kd (as a rule, a measure of binding affinity in units of concentration) stood at 7 nM.

The record behind these values is PMC7126611.
